# Test results published in patent US20240216513A1, “FATTY ACID-BIFUNCTIONAL DEGRADER CONJUGATES AND THEIR METHODS OF USE” (Novartis AG, priority 2021, published 2024).
# Key:
# [1] = In vivo pharmacokinetic study in Beagle dogs (i.v. or s.c.), FAC and payload in blood; parameters: species or system dog
# Protocol: (§1) Pharmacokinetic studies were conducted in male C57/B16 mice; male Sprague-Dawley rats; male Beagle dogs and male Cynomolgus monkeys. 3 animals per group were used for each study performed. All studies were performed in accordance with local animal welfare regulations.
# (§2) Between 1 and 10 µM/kg FAC was administered either intravenously or subcutaneously as a solution in 10 mM PBS with NaOH (dose volume 0.4 mL/kg in dog and monkey s.c. and 0.2 mL/kg i.v. in monkey). Serial 100 µL blood samples were collected via venipuncture of the cephalic vein at defined timepoints to 336 hours (into EDTA coated tubes).
# (§3) Each blood sample was precipitated with acetonitrile containing internal standard; samples were mixed and centrifuged (20 minutes 4000 RPM at 4° C.). Supernatant was transferred to a microwell plate and evaporated under nitrogen at 60° C. Residue was resuspended in acetonitrile/water (7:3 v/v); plate sealed and transferred to an ultrasonic bath for 3 minutes, prior to analysis. Quantification was performed by LC-MS/MS (SciexAP16500 Q-trap, Shimadzu Nexera X2) using a Phenomenex Polar RP analytical column (2.5 μm particle size; 50×2 mm). The mobile phase consisted of solvent A (0.1% formic acid in water) and solvent B (0.1% formic acid in acetonitrile). The fatty acid conjugate and API were detected using multiple reaction monitoring.
# (§4) Data analysis and calculation of non-compartmental pharmacokinetic parameters was
# (§5) performed using an in-house analysis. Following intravenous administration whole blood clearance was calculated by the dose administered divided by AUC0-inf. Volume of distribution at steady state was calculated as MRT*CL, where MRT is the mean residence time, calculated by AUMC0-inf/AUC0-inf. The half-life (t1/2) of the terminal elimination phase was calculated by 0.693/λ. For both intravenous and subcutaneous administration, the systemic exposures were determined by calculating the area under the blood concentration time curve (AUC) from time zero to the last observed quantifiable concentration (AUClast) by using the linear trapezoidal method and normalised to dose. Extrapolated AUC (AUC0-inf) is calculated by addition of AUClast and AUCtlast-inf; where AUCtlast-inf is calculated based on Clast/λ. The slope of the terminal elimination phase was estimated by linear regression of the terminal data points (minimum 3 points) from a natural log concentration versus time plot of the data. Bioavailability was calculated as the dose normalized ratio of […] AUCinf to intravenous AUCinf (100*[SC AUCinf/SC dose]/[IV AUCinf/IV dose]). Following subcutaneous administration Cmax is calculated as the average maximum observed peak concentration and Tmax is the time associated with the determined Cmax.
# TMD8 tumors = assay: Efficacy in ectopic (subcutaneous) TMD8 tumor-bearing SCID/BEIGE mice, tumor volume; assay type: in vivo, mouse; conditions: I.v.
# Protocol: (§6) All animal experiments were performed according to procedures covered by permit number BS-1974, BS-1975 and BS-2904 issued by the Kantonales Veterinäramt Basel-Stadt and strictly adhered to the Eidgenössisches Tierschutzgesetz and the Eidgenössische Tierschutzverordnung. Female Sprague Dawley rat were obtained from Charles Rivers (Germany), female Balb/c mice from Charles Rivers (Italy) and female SCID/BEIGE (C.B-Igh-1b/GbmsTac-Prkdcscid-Lystbg N7) mice from Taconic. All the animals were housed in a pathogen-controlled environment with access to food and water ad libitum and they were identified with transponders.
# (§7) Subcutaneous TMD8 tumors were induced by injecting tumor cells expanded in vitro in the right flank of SCID/BEIGE mice. As soon as the injection was finished, antagonization (naloxone, flumazenil and atipamezole injected s.c.) was injected and mice are put on a warming pad for recovery and carefully checked during that time.
# (§8) For PK experiments, non-tumor bearing mice or rats were treated once (10 mL/kg) with a compound either i.v. or s.c. Serial blood samplings from the tail vein (5-20 μl) were collected during the course of the experiment. For PK/PD experiments in tumor-bearing mice, compound was administered once (10 mL/kg) either i.v. or s.c. Animals were randomized into groups of n=3 and tissue samples were collected at several time points. At the times indicated, animals were anaesthetized by exposure to 2-3% v/v isoflurane in medical oxygen. They were sacrificed without recovering from anesthetic after blood sampling into commercially prepared EDTA coated tubes (Milian, cat #TOM-14C) in order to extract plasma. The tissues were excised, weighted and rapidly frozen in liquid nitrogen. Later, tumors were cryogenic dry pulverized with the CryoPrep™ system (model CP-02, Covaris). For efficacy experiments in ectopic tumor-bearing mice, animals were randomized into groups of n=6 for a mean tumor size of 100 mm^3 and compound was administered either i.v. q3w or s.c. q2w. When implanted in brain, animals were randomized into groups of n=4 for a mean bioluminescence of 1.0-2.0E+06 [p/s]/[ρW/cm^2] and compound was administered i.v. qw. Tumor response were reported with the measures of tumor volumes or bioluminescence from the treatment start. Concentrations of compound in blood and tissues were determined simultaneously by UPLC/MS-MS. BTK and IL-10 levels in tumor were determined by Meso Scale Discovery (MSD).
# BTK = molecular target: T1, BTK (Homo sapiens, UniProt Q06187); assay: PK/PD in TMD8 tumor-bearing mice: BTK levels in tumor by Meso Scale Discovery; assay type: in vivo, mouse; conditions: I.v.; 40 umol/kg
# T1 construct: endogenous in cells; host or cells: TMD8 tumour xenografts in SCID/BEIGE mice
# T1 sequence (Q06187 whole entry): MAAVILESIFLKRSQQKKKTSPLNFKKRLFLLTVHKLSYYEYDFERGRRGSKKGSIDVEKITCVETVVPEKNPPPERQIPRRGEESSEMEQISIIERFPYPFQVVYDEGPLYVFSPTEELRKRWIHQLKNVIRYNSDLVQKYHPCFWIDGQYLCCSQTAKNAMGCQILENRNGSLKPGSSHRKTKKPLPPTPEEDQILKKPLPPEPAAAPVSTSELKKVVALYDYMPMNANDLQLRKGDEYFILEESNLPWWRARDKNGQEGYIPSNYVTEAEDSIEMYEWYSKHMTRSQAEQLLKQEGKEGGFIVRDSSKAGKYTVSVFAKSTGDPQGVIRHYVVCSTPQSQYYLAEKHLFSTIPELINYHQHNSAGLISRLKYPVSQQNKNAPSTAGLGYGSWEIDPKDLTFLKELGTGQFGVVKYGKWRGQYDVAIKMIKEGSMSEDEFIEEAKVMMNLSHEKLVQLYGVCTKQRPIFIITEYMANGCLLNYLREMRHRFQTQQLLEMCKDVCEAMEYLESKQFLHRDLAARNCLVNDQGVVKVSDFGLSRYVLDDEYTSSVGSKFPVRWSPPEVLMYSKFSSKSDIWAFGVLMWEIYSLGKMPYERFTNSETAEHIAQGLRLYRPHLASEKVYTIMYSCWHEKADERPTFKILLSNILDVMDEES
# Protocol: as §6, §7, §8
# [2] = In vivo pharmacokinetic study in mice (i.v. or s.c.), FAC and payload in blood; parameters: species or system mouse; conditions: male, C57/B16, mouse, in vivo, sc, 40 umol/kg
# [3] = In vivo pharmacokinetic study in rats (i.v. or s.c.), FAC and payload in blood; parameters: species or system rat; conditions: male, Sprague-Dawley, rat, in vivo, sc, 40 umol/kg
# Protocol: as §1
# […] Serial 30 µL blood samples were collected via venipuncture of the tail vein in mouse, and via the cannulated jugular vein in rats at defined timepoints to 216 hours (into EDTA coated tubes).
# as §3, §4, §5
# as §8, with “Concentrations of compound in blood and tissues were determined simultaneously by UPLC/MS-MS. BTK and IL-10 levels in tumor were determined by Meso Scale Discovery (MSD).” left out
# [4] = In vivo pharmacokinetic study in Cynomolgus monkeys (i.v. or s.c.), FAC and payload in blood; parameters: species or system cynomolgus monkey
# Protocol: as §1, §2, §3, §4, §5
structure (smiles),measurement,setting,value
"CCCCCCCCCCCC(CCCCCCCCCCC(=O)O)(C(=O)O)C(=O)NCCOCCOCCOCCOCCOCCOCCOCCOCCOCCOCCOCCOCCC(=O)NCC(=O)OC(C)(C)c1ccc(C(=O)Nc2cc(F)cc(-c3ncnc4[nH]c(-c5ccc(CN6CCC(OC7CCN(CCn8cccc(CN9CCC(=O)NC9=O)c8=O)CC7)CC6)cc5)cc34)c2C)c(F)c1 (stereo not drawn) [Compound B1, 2-((44-(4-((3-(6-(4-((4-((1-(2-(3-((2,4-Dioxotetrahydropyrimidin-1(2H)-yl)methyl)-2-oxopyridin-1(2H)-yl)ethyl)piperidin-4-yl)oxy)piperidin-1-yl)methyl)phenyl)-7H-pyrrolo[2,3-d]pyrimidin-4-yl)-5-fluoro-2-methylphenyl)carbamoyl)-3-fluorophenyl)-44-methyl-39,42-dioxo-3,6,9,12,15,18,21,24,27,30,33,36,43-tridecaoxa-40-azapentatetracontyl)carbamoyl)-2-undecyltridecanedioic acid]",Fatty Acid Conjugate C0-uM d.n. Dog,"[1]; analyte conjugate, d.n., Conj. i.v. dose 10 umol/kg",3.3 µM
same,AUC,"[1]; male, Beagle, whole blood, sc, Dog, Conj. s.c. dose 10 umol/kg, read-out: Lipophilic Acid Conjugate AUC",304 µM·h
same,Cmax,"[1]; male, Beagle, whole blood, sc, Dog, Conj. s.c. dose 10 umol/kg, read-out: Lipophilic Acid Conjugate Cmax",37.5 µM
same,Dosing to achieve sustained ~90% regression,TMD8 tumors,40 umol/kg q3w
same,Duration of BTK degradation in mouse ≥90%,BTK,10 days
same,AUC,[2],3860 µM·h
same,Cmax,[2],71 µM
same,Cmax,[3],11 µM
same,AUC,[3]; Lipophilic Acid Conjugate AUC,667 µM·h
same,Fatty Acid Conjugate C0-uM d.n. Cyno,"[4]; analyte conjugate, d.n., Conj. i.v. dose 1 umol/kg",9.9 µM
same,AUC,"[4]; male, cynomolgus monkey, whole blood, sc, Cyno, Conj. s.c. dose 1 umol/kg, read-out: Lipophilic Acid Conjugate AUC",26.1 µM·h
same,Cmax,"[4]; male, cynomolgus monkey, whole blood, sc, Cyno, Conj. s.c. dose 1 umol/kg, read-out: Lipophilic Acid Conjugate Cmax",3.8 µM
